Holding throughout (assay): single-molecule TIRF colocalisation with deconvolution of colocalisation times
The target of assay [1] is T1, N-terminally SNAP-tagged human β2-adrenergic receptor (SNAP-β2AR) (human, UniProt P07550 1-413, SNAP-Surface Alexa Fluor 647 on the SNAP-tag).
Assay [2] addresses T1, N-terminally SNAP-tagged human …. The source holds these as a separate data set.
The target is the same in assay [3]. The source holds these as a separate data set.

Like-named read-outs stand apart in the source and are kept apart here.

B1: C-terminally Halo-tagged bovine β-arrestin 2 (βArr2-Halo) (natural protein)
chain: MGEKPGTRVFKKSSPNCKLTVYLGKRDFVDHLDKVDPVDGVVLVDPDYLKDRKVFVTLTCAFRYGREDLDVLGLSFRKDLFIANYQAFPPTPNPPRPPTRLQERLLRKLGQHAHPFFFTIPQNLPCSVTLQPGPEDTGKACGVDFEIRAFCAKSLEEKSHKRNSVRLVIRKVQFAPEKPGPQPSAETTRHFLMSDRSLHLEASLDKELYYHGEPLNVNVHVTNNSTKTVKKIKVSVRQYADICLFSTAQYKCPVAQVEQDDQVSPSSTFCKVYTITPLLSNNREKRGLALDGKLKHEDTNLASSTIVKEGANKEVLGILVSYRVKVKLVVSRGGDVSVELPFVLMHPKPHDHIALPRPQSAAPETDAPVDTNLIEFETNYATDDDIVFEDFARLRLKGLKDEDYDDQFC
modifications: Halo-JF549 on the Halo-tag (single-molecule microscopy); Halo-R110 on the Halo-tag (BRET)
With B1, the results for the “fold increase in kon versus basal” value in assay [1] and in assay [2] were around 1.4 fold and around 1.8 fold, respectively. For the same molecule, in assay [3], the off-rate (koff) is 1.34 s⁻¹.

The koff is the rate constant with which the complex falls apart.

The values are drawn from paper doi:10.1101/2022.11.15.516577 (bioRxiv, 2022).
